Experimental data taken from US11319341B2, “Immune-stimulating soluble doxorubicin-conjugated complex” (Yafei (Shanghai) Biopharmaceutical Co., Ltd., priority 2016, dated 2022).
Like-named read-outs stand apart in the source and are kept apart here. Residues, ends and D or L forms follow the SMILES beside them. *: point of attachment. Doxorubicin(3'-N) = COc1cccc2c1C(=O)c1c(O)c3c(c(O)c1C2=O)C[C@@](O)(C(=O)CO)C[C@@H]3O[C@H]1C[C@H](N*)[C@H](O)[C@H](C)O1; Mal(CH2CH2O)6CH2CH2CO = O=C1C=CC(=O)N1CCOCCOCCOCCOCCOCCOCCC(=O)*; MaleimidoPEG4propanoyl = O=C1C=CC(=O)N1CCOCCOCCOCCOCCC(=O)*; Hexanoyl(6-maleimido) = O=C1C=CC(=O)N1CCCCCC(=O)*; Butanoyl(4-maleimido) = O=C1C=CC(=O)N1CCCC(=O)*; Propanoyl(3-maleimido) = O=C1C=CC(=O)N1CCC(=O)*; X1 = O=C1C=CC(=O)N1CCOCCOCCOCCC(=O)*; PEG6 = NCCOCCOCCOCCOCCOCCOCCC(=O)O; X2 = O=C1C=CC(=O)N1CCOCCOCCC(=O)*; PEG4 = NCCOCCOCCOCCOCCC(=O)O; PEG3 = NCCOCCOCCOCCC(=O)O; PEG2 = NCCOCCOCCC(=O)O

Assay: Water solubility of freeze-dried compounds in water (observation and HPLC)

Structure (SMILES) | solubility [mg/mL] | solubility (freeze-dried compound dissolved in water, observation and HPLC test (>95%)) [mg/mL]
COc1cccc2c1C(=O)c1c(O)c3c(c(O)c1C2=O)C[C@@](O)(C(=O)CO)C[C@@H]3O[C@H]1C[C@H](NC(=O)[C@H](CC(C)C)NC(=O)[C@H](CC(N)=O)NC(=O)[C@H](C)NC(=O)[C@H](C)NC(=O)[C@H](CC(=O)O)NC(=O)CCOCCOCCOCCN2C(=O)C=CC2=O)[C@H](O)[C@H](C)O1 [QHL-034] (X1-DAANL-{Doxorubicin(3'-N)}) | > 20 | 
COc1cccc2c1C(=O)c1c(O)c3c(c(O)c1C2=O)C[C@@](O)(C(=O)CO)C[C@@H]3O[C@H]1C[C@H](NC(=O)[C@H](CC(C)C)NC(=O)[C@H](CC(N)=O)NC(=O)[C@H](C)NC(=O)[C@H](C)NC(=O)[C@H](CC(=O)O)NC(=O)CCOCCOCCOCCOCCNC(=O)CCCN2C(=O)C=CC2=O)[C@H](O)[C@H](C)O1 [QHL-078] ({Butanoyl(4-maleimido)-PEG4}-DAANL-{Doxorubicin(3'-N)}) | > 25 | 
COc1cccc2c1C(=O)c1c(O)c3c(c(O)c1C2=O)C[C@@](O)(C(=O)CO)C[C@@H]3O[C@H]1C[C@H](NC(=O)[C@H](CC(C)C)NC(=O)[C@H](CC(N)=O)NC(=O)[C@H](C)NC(=O)[C@H](C)NC(=O)[C@H](CCC(=O)O)NC(=O)CCOCCOCCN2C(=O)C=CC2=O)[C@H](O)[C@H](C)O1 [QHL-021] (X2-EAANL-{Doxorubicin(3'-N)}) | > 20 | 
COc1cccc2c1C(=O)c1c(O)c3c(c(O)c1C2=O)C[C@@](O)(C(=O)CO)C[C@@H]3O[C@H]1C[C@H](NC(=O)[C@H](CC(C)C)NC(=O)[C@H](CC(N)=O)NC(=O)[C@H](C)NC(=O)[C@H](C)NC(=O)[C@H](CC(=O)O)NC(=O)CCOCCOCCOCCNC(=O)CCCN2C(=O)C=CC2=O)[C@H](O)[C@H](C)O1 [QHL-072] ({Butanoyl(4-maleimido)-PEG3}-DAANL-{Doxorubicin(3'-N)}) | > 25 | 
COc1cccc2c1C(=O)c1c(O)c3c(c(O)c1C2=O)C[C@@](O)(C(=O)CO)C[C@@H]3O[C@H]1C[C@H](NC(=O)[C@H](CC(C)C)NC(=O)[C@H](CC(N)=O)NC(=O)[C@H](C)NC(=O)[C@H](C)NC(=O)[C@H](CCC(=O)O)NC(=O)CCOCCOCCOCCOCCOCCOCCNC(=O)CCN2C(=O)C=CC2=O)[C@H](O)[C@H](C)O1 [QHL-057] ({Propanoyl(3-maleimido)-PEG6}-EAANL-{Doxorubicin(3'-N)}) | > 25 | 
COc1cccc2c1C(=O)c1c(O)c3c(c(O)c1C2=O)C[C@@](O)(C(=O)CO)C[C@@H]3O[C@H]1C[C@H](NC(=O)[C@H](CC(C)C)NC(=O)[C@H](CC(N)=O)NC(=O)[C@H](C)NC(=O)[C@H](C)NC(=O)[C@H](CC(=O)O)NC(=O)CCOCCOCCOCCOCCN2C(=O)C=CC2=O)[C@H](O)[C@H](C)O1 [QHL-035] (MaleimidoPEG4propanoyl-DAANL-{Doxorubicin(3'-N)}) | > 25 | 
COc1cccc2c1C(=O)c1c(O)c3c(c(O)c1C2=O)C[C@@](O)(C(=O)CO)C[C@@H]3O[C@H]1C[C@H](NC(=O)[C@H](CC(C)C)NC(=O)[C@H](CC(N)=O)NC(=O)[C@H](C)NC(=O)[C@H](C)NC(=O)[C@H](CO)NC(=O)CCCCCN2C(=O)C=CC2=O)[C@H](O)[C@H](C)O1 [QHL-129] ({Hexanoyl(6-maleimido)}-SAANL-{Doxorubicin(3'-N)}) | > 5 | 
COc1cccc2c1C(=O)c1c(O)c3c(c(O)c1C2=O)C[C@@](O)(C(=O)CO)C[C@@H]3O[C@H]1C[C@H](NC(=O)[C@H](CC(C)C)NC(=O)[C@H](CC(N)=O)NC(=O)[C@H](C)NC(=O)[C@H](C)NC(=O)CCOCCOCCOCCNC(=O)CCN2C(=O)C=CC2=O)[C@H](O)[C@H](C)O1 [QHL-090] ({Propanoyl(3-maleimido)-PEG3}-AANL-{Doxorubicin(3'-N)}) | > 10 | 
COc1cccc2c1C(=O)c1c(O)c3c(c(O)c1C2=O)C[C@@](O)(C(=O)CO)C[C@@H]3O[C@H]1C[C@H](NC(=O)[C@H](CC(C)C)NC(=O)[C@H](CC(N)=O)NC(=O)[C@H](C)NC(=O)[C@H](C)NC(=O)[C@H](CCC(=O)O)NC(=O)CCOCCOCCOCCOCCNC(=O)CCCN2C(=O)C=CC2=O)[C@H](O)[C@H](C)O1 [QHL-075] ({Butanoyl(4-maleimido)-PEG4}-EAANL-{Doxorubicin(3'-N)}) | > 25 | 
COc1cccc2c1C(=O)c1c(O)c3c(c(O)c1C2=O)C[C@@](O)(C(=O)CO)C[C@@H]3O[C@H]1C[C@H](NC(=O)[C@H](CC(C)C)NC(=O)[C@H](CC(N)=O)NC(=O)[C@H](C)NC(=O)[C@H](C)NC(=O)[C@H](CCC(=O)O)NC(=O)CCOCCOCCOCCOCCN2C(=O)C=CC2=O)[C@H](O)[C@H](C)O1 [QHL-023] (MaleimidoPEG4propanoyl-EAANL-{Doxorubicin(3'-N)}) | > 25 | 
COc1cccc2c1C(=O)c1c(O)c3c(c(O)c1C2=O)C[C@@](O)(C(=O)CO)C[C@@H]3O[C@H]1C[C@H](NC(=O)[C@H](CC(C)C)NC(=O)[C@H](CC(N)=O)NC(=O)[C@H](C)NC(=O)[C@H](C)NC(=O)[C@H](CC(N)=O)NC(=O)CCCCCN2C(=O)C=CC2=O)[C@H](O)[C@H](C)O1 [QHL-133] ({Hexanoyl(6-maleimido)}-NAANL-{Doxorubicin(3'-N)}) | > 2 | 
COc1cccc2c1C(=O)c1c(O)c3c(c(O)c1C2=O)C[C@@](O)(C(=O)CO)C[C@@H]3O[C@H]1C[C@H](NC(=O)[C@H](CC(C)C)NC(=O)[C@H](CC(N)=O)NC(=O)[C@H](C)NC(=O)[C@H](C)NC(=O)[C@H](CC(=O)O)NC(=O)CCOCCOCCOCCOCCOCCOCCNC(=O)CCCN2C(=O)C=CC2=O)[C@H](O)[C@H](C)O1 [QHL-084] ({Butanoyl(4-maleimido)-PEG6}-DAANL-{Doxorubicin(3'-N)}) | > 30 | 
COc1cccc2c1C(=O)c1c(O)c3c(c(O)c1C2=O)C[C@@](O)(C(=O)CO)C[C@@H]3O[C@H]1C[C@H](NC(=O)[C@H](CC(C)C)NC(=O)[C@H](CC(N)=O)NC(=O)[C@H](C)NC(=O)[C@H](C)NC(=O)[C@H](CC(=O)O)NC(=O)CCOCCOCCOCCOCCOCCOCCNC(=O)CCN2C(=O)C=CC2=O)[C@H](O)[C@H](C)O1 [QHL-060] ({Propanoyl(3-maleimido)-PEG6}-DAANL-{Doxorubicin(3'-N)}) | > 25 | 
COc1cccc2c1C(=O)c1c(O)c3c(c(O)c1C2=O)C[C@@](O)(C(=O)CO)C[C@@H]3O[C@H]1C[C@H](NC(=O)[C@H](CC(C)C)NC(=O)[C@H](CC(N)=O)NC(=O)[C@H](C)NC(=O)[C@H](C)NC(=O)[C@H](CCC(=O)O)NC(=O)CCOCCOCCOCCN2C(=O)C=CC2=O)[C@H](O)[C@H](C)O1 [QHL-022] (X1-EAANL-{Doxorubicin(3'-N)}) | > 20 | 
COc1cccc2c1C(=O)c1c(O)c3c(c(O)c1C2=O)C[C@@](O)(C(=O)CO)C[C@@H]3O[C@H]1C[C@H](NC(=O)[C@H](CC(C)C)NC(=O)[C@H](CC(N)=O)NC(=O)[C@H](C)NC(=O)[C@H](C)NC(=O)[C@H](CCCNC(=N)N)NC(=O)CCCCCN2C(=O)C=CC2=O)[C@H](O)[C@H](C)O1 [QHL-136] ({Hexanoyl(6-maleimido)}-RAANL-{Doxorubicin(3'-N)}) | > 2 | 
COc1cccc2c1C(=O)c1c(O)c3c(c(O)c1C2=O)C[C@@](O)(C(=O)CO)C[C@@H]3O[C@H]1C[C@H](NC(=O)[C@H](CC(C)C)NC(=O)[C@H](CC(N)=O)NC(=O)[C@H](C)NC(=O)[C@H](C)NC(=O)[C@H](CCCCN)NC(=O)CCCCCN2C(=O)C=CC2=O)[C@H](O)[C@H](C)O1 [QHL-135] ({Hexanoyl(6-maleimido)}-KAANL-{Doxorubicin(3'-N)}) | > 5 | 
COc1cccc2c1C(=O)c1c(O)c3c(c(O)c1C2=O)C[C@@](O)(C(=O)CO)C[C@@H]3O[C@H]1C[C@H](NC(=O)[C@H](CC(C)C)NC(=O)[C@H](CC(N)=O)NC(=O)[C@H](C)NC(=O)[C@H](C)NC(=O)[C@H](Cc2ccc(O)cc2)NC(=O)CCCCCN2C(=O)C=CC2=O)[C@H](O)[C@H](C)O1 [QHL-132] ({Hexanoyl(6-maleimido)}-YAANL-{Doxorubicin(3'-N)}) | > 2 | 
COc1cccc2c1C(=O)c1c(O)c3c(c(O)c1C2=O)C[C@@](O)(C(=O)CO)C[C@@H]3O[C@H]1C[C@H](N)[C@H](O)[C@H](C)O1 [C1: DOX] |  | <1
COc1cccc2c1C(=O)c1c(O)c3c(c(O)c1C2=O)C[C@@](O)(C(=O)CO)C[C@@H]3O[C@H]1C[C@H](NC(=O)[C@H](CC(C)C)NC(=O)[C@H](CC(N)=O)NC(=O)[C@H](C)NC(=O)[C@H](C)NC(=O)[C@H](CC(=O)O)NC(=O)CCOCCOCCOCCNC(=O)CCN2C(=O)C=CC2=O)[C@H](O)[C@H](C)O1 [QHL-048] ({Propanoyl(3-maleimido)-PEG3}-DAANL-{Doxorubicin(3'-N)}) | > 20 | 
COc1cccc2c1C(=O)c1c(O)c3c(c(O)c1C2=O)C[C@@](O)(C(=O)CO)C[C@@H]3O[C@H]1C[C@H](NC(=O)[C@H](CC(C)C)NC(=O)[C@H](CC(N)=O)NC(=O)[C@H](C)NC(=O)[C@H](C)NC(=O)[C@H](CCC(=O)O)NC(=O)CCN2C(=O)C=CC2=O)[C@H](O)[C@H](C)O1 [QHL-111] ({Propanoyl(3-maleimido)}-EAANL-{Doxorubicin(3'-N)}) | > 10 | 
COc1cccc2c1C(=O)c1c(O)c3c(c(O)c1C2=O)C[C@@](O)(C(=O)CO)C[C@@H]3O[C@H]1C[C@H](NC(=O)[C@H](CC(C)C)NC(=O)[C@H](CC(N)=O)NC(=O)[C@H](C)NC(=O)[C@H](C)NC(=O)[C@H](CC(=O)O)NC(=O)CCOCCOCCOCCOCCOCCOCCN2C(=O)C=CC2=O)[C@H](O)[C@H](C)O1 [QHL-036] ({Mal(CH2CH2O)6CH2CH2CO}-DAANL-{Doxorubicin(3'-N)}) | > 30 | 
COc1cccc2c1C(=O)c1c(O)c3c(c(O)c1C2=O)C[C@@](O)(C(=O)CO)C[C@@H]3O[C@H]1C[C@H](NC(=O)[C@H](CC(C)C)NC(=O)[C@H](CC(N)=O)NC(=O)[C@H](C)NC(=O)[C@H](C)NC(=O)CCOCCOCCNC(=O)CCCN2C(=O)C=CC2=O)[C@H](O)[C@H](C)O1 [QHL-099] ({Butanoyl(4-maleimido)-PEG2}-AANL-{Doxorubicin(3'-N)}) | > 20 | 
CC[C@H](C)[C@H](NC(=O)CCCCCN1C(=O)C=CC1=O)C(=O)N[C@@H](C)C(=O)N[C@@H](C)C(=O)N[C@@H](CC(N)=O)C(=O)N[C@@H](CC(C)C)C(=O)N[C@H]1C[C@H](O[C@H]2C[C@](O)(C(=O)CO)Cc3c(O)c4c(c(O)c32)C(=O)c2c(OC)cccc2C4=O)O[C@@H](C)[C@H]1O [QHL-125] ({Hexanoyl(6-maleimido)}-IAANL-{Doxorubicin(3'-N)}) | > 2 | 
